Our source for the Kd values is article PMC13185593.

For this data set, the system named is HuR. As to the kind of experiment: SPR. The conditions noted are these: SPR: 25 mM Tris pH 7.5, 100 mM KCl, 7 mM b-mercaptoethanol, 10% glycerol, 25 C, UV crosslinking: 5 mM HEPES pH 7.6, 25 mM KCl, 2 mM MgCl2, 3.8% glycerol.

The Kd is the concentration at which binding is half-saturated. SARS-CoV-2 5'-UTR C241U, biotin (SPR) showed a Kd of 339 nM.

Take “SARS-CoV-2 5'-UTR G210U+C241U, biotin (SPR)”: the dissociation constant Kd worked out at 72.9 nM.
